Blank lines part the entries; values can stand above or below the molecule they belong to.
Tests used:
Assay in all cases: cell-based or functional assay
[1] = biological target: epidermal growth factor receptor (EGFR) on gastric cancer cell lines NCI-N87, AGS and NUGC3 (UniProt P00533)
[2] = biological target: T1, epidermal growth factor receptor (EGFR) on gastric cancer cell lines NCI-N87, AGS and NUGC3 (UniProt P00533 25-1210, limits assumed)
[3] = biological target: T1, epidermal growth factor receptor (EGFR) …; remark: listed apart in the source
[4] = biological target: T1, epidermal growth factor receptor (EGFR) …; remark: listed apart in the source
[5] = biological target: T1, epidermal growth factor receptor (EGFR) …; remark: listed apart in the source
[6] = biological target: T1, epidermal growth factor receptor (EGFR) …; remark: listed apart in the source
[7] = biological target: T1, epidermal growth factor receptor (EGFR) …; remark: listed apart in the source

increase of cell invasion (NUGC3, AREG 200 ng/ml) [1]: 1.3 fold
increase of cell invasion (NUGC3, AREG 500 ng/ml) [1]: 1.5 fold
Molecule: AREG (amphiregulin) (from UniProt P15514 101-198) (ligand)

increase of cell invasion (NUGC3, HB-EGF 10 ng/ml) [1]: 2.3 fold
increase of cell invasion (NUGC3, HB-EGF 20 ng/ml) [1]: 3.5 fold
increase of cell invasion (NUGC3, HB-EGF 50 ng/ml) [1]: 4.8 fold
increase of invasion against control (AGS, HB-EGF 10 ng/ml) [1]: 4.1 fold
increase of invasion against control (AGS, HB-EGF 20 ng/ml) [1]: 4.5 fold
increase of invasion against control (AGS, HB-EGF 50 ng/ml) [1]: 3.9 fold
Molecule: HB-EGF (heparin binding-EGF-like growth factor) (from UniProt Q99075 63-148) (ligand)

increase of cell invasion (NUGC3, TGF-α 10 ng/ml) [1]: 1.7 fold
increase of cell invasion (NUGC3, TGF-α 20 ng/ml) [1]: 1.9 fold
increase of cell invasion (NUGC3, TGF-α 50 ng/ml) [1]: 1.9 fold
increase of invasion against control (AGS, TGF-α 10 ng/ml) [1]: 1.8 fold
increase of invasion against control (AGS, TGF-α 20 ng/ml) [1]: 1.8 fold
increase of invasion against control (AGS, TGF-α 50 ng/ml) [1]: 1.9 fold
Molecule: TGF-α (transforming growth factor-α) (from UniProt P01135 40-89) (ligand)

invaded cells relative to AREG alone, % of OD (NUGC3, AREG 500 ng/ml, antibody 1 µg/ml), Average (%) [2]: 54.8%
invaded cells relative to AREG alone, % of OD (NUGC3, AREG 500 ng/ml, antibody 1 µg/ml), set 1-1 [2]: 40.2%
invaded cells relative to AREG alone, % of OD (NUGC3, AREG 500 ng/ml, antibody 1 µg/ml), set 1-2 [2]: 50.7%
invaded cells relative to AREG alone, % of OD (NUGC3, AREG 500 ng/ml, antibody 1 µg/ml), set 2-1 [2]: 59.8%
invaded cells relative to AREG alone, % of OD (NUGC3, AREG 500 ng/ml, antibody 1 µg/ml), set 2-2 [2]: 59.6%
invaded cells relative to AREG alone, % of OD (NUGC3, AREG 500 ng/ml, antibody 1 µg/ml), set 3-1 [2]: 62.4%
invaded cells relative to AREG alone, % of OD (NUGC3, AREG 500 ng/ml, antibody 1 µg/ml), set 3-2 [2]: 56.1%
invaded cells relative to TGF-α alone, % of OD (AGS, TGF-α 20 ng/ml, antibody 1 µg/ml), Average (%) [3]: 44.1%
invaded cells relative to TGF-α alone, % of OD (AGS, TGF-α 20 ng/ml, antibody 1 µg/ml), set 1-1 [3]: 45.1%
invaded cells relative to TGF-α alone, % of OD (AGS, TGF-α 20 ng/ml, antibody 1 µg/ml), set 1-2 [3]: 41.6%
invaded cells relative to TGF-α alone, % of OD (AGS, TGF-α 20 ng/ml, antibody 1 µg/ml), set 2-1 [3]: 31.2%
invaded cells relative to TGF-α alone, % of OD (AGS, TGF-α 20 ng/ml, antibody 1 µg/ml), set 2-2 [3]: 33.8%
invaded cells relative to TGF-α alone, % of OD (AGS, TGF-α 20 ng/ml, antibody 1 µg/ml), set 3-1 [3]: 57.9%
invaded cells relative to TGF-α alone, % of OD (AGS, TGF-α 20 ng/ml, antibody 1 µg/ml), set 3-2 [3]: 54.8%
invaded cells relative to HB-EGF alone, % of OD (NUGC3, HB-EGF 50 ng/ml, antibody 1 µg/ml), Average (%) [4]: 39.2%
invaded cells relative to HB-EGF alone, % of OD (NUGC3, HB-EGF 50 ng/ml, antibody 1 µg/ml), set 1-1 [4]: 18.8%
invaded cells relative to HB-EGF alone, % of OD (NUGC3, HB-EGF 50 ng/ml, antibody 1 µg/ml), set 1-2 [4]: 21%
invaded cells relative to HB-EGF alone, % of OD (NUGC3, HB-EGF 50 ng/ml, antibody 1 µg/ml), set 2-1 [4]: 57.7%
invaded cells relative to HB-EGF alone, % of OD (NUGC3, HB-EGF 50 ng/ml, antibody 1 µg/ml), set 2-2 [4]: 64.2%
invaded cells relative to HB-EGF alone, % of OD (NUGC3, HB-EGF 50 ng/ml, antibody 1 µg/ml), set 3-1 [4]: 41.7%
invaded cells relative to HB-EGF alone, % of OD (NUGC3, HB-EGF 50 ng/ml, antibody 1 µg/ml), set 3-2 [4]: 31.9%
invaded cells relative to HB-EGF alone, % of OD (AGS, HB-EGF 20 ng/ml, antibody 1 µg/ml), Average (%) [5]: 49.6%
invaded cells relative to HB-EGF alone, % of OD (AGS, HB-EGF 20 ng/ml, antibody 1 µg/ml), set 1-1 [5]: 50.6%
invaded cells relative to HB-EGF alone, % of OD (AGS, HB-EGF 20 ng/ml, antibody 1 µg/ml), set 1-2 [5]: 56.8%
invaded cells relative to HB-EGF alone, % of OD (AGS, HB-EGF 20 ng/ml, antibody 1 µg/ml), set 2-1 [5]: 57.7%
invaded cells relative to HB-EGF alone, % of OD (AGS, HB-EGF 20 ng/ml, antibody 1 µg/ml), set 2-2 [5]: 64.2%
invaded cells relative to HB-EGF alone, % of OD (AGS, HB-EGF 20 ng/ml, antibody 1 µg/ml), set 3-1 [5]: 33.3%
invaded cells relative to HB-EGF alone, % of OD (AGS, HB-EGF 20 ng/ml, antibody 1 µg/ml), set 3-2 [5]: 34.9%
invaded cells relative to TGF-α alone, % of OD (NUGC3, TGF-α 50 ng/ml, antibody 1 µg/ml), Average (%) [6]: 32.5%
invaded cells relative to TGF-α alone, % of OD (NUGC3, TGF-α 50 ng/ml, antibody 1 µg/ml), set 1-1 [6]: 31.5%
invaded cells relative to TGF-α alone, % of OD (NUGC3, TGF-α 50 ng/ml, antibody 1 µg/ml), set 1-2 [6]: 27.3%
invaded cells relative to TGF-α alone, % of OD (NUGC3, TGF-α 50 ng/ml, antibody 1 µg/ml), set 2-1 [6]: 31.4%
invaded cells relative to TGF-α alone, % of OD (NUGC3, TGF-α 50 ng/ml, antibody 1 µg/ml), set 2-2 [6]: 30%
invaded cells relative to TGF-α alone, % of OD (NUGC3, TGF-α 50 ng/ml, antibody 1 µg/ml), set 3-1 [6]: 36.4%
invaded cells relative to TGF-α alone, % of OD (NUGC3, TGF-α 50 ng/ml, antibody 1 µg/ml), set 3-2 [6]: 38.3%
invaded cells relative to AREG alone, % of OD (AGS, AREG 1,000 ng/ml, antibody 1 µg/ml), Average (%) [7]: 55.4%
invaded cells relative to AREG alone, % of OD (AGS, AREG 1,000 ng/ml, antibody 1 µg/ml), set 1-1 [7]: 55.3%
invaded cells relative to AREG alone, % of OD (AGS, AREG 1,000 ng/ml, antibody 1 µg/ml), set 1-2 [7]: 61.3%
invaded cells relative to AREG alone, % of OD (AGS, AREG 1,000 ng/ml, antibody 1 µg/ml), set 2-1 [7]: 51.8%
invaded cells relative to AREG alone, % of OD (AGS, AREG 1,000 ng/ml, antibody 1 µg/ml), set 2-2 [7]: 53.1%
B1: GC1118 (antibody, human IgG1, kappa, V domains shown)
VH: EVQLVESGGGVVQPGGSLRLSCAASGFTFSDYDMSWIRQAPGKGLEWVSGILGGSERSYYRDSVKGRFTISRDNSRKTLYLQMNSLRAEDTAVYYCARHGSPGYTLYAWDYWGQGTTVTVSS
VL: DIVMTQTPLSLPVTPGEPASISCRSNQDLTHSNGNTYLEWYLQKPGQSPRLLIYKVSNRFSGVPDRFSGSGAGTDFTLRISRVEAEDVGVYYCMQGTHWPWTFGQGTKVDIKR

From patent US20190119388A1 (GREEN CROSS, published 2019)
